Source: the supplement of paper PMC9170038

Tested on: MS2 coat protein
Assay: apparent KD of MS2 coat protein; designed switch direction (-1 OFF switch, 1 ON switch): -1; higher = weaker reporter binding
Summary of the method: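 The apparent KD reported per design is the median over clusters of curve fits to normalised cluster fluorescence. The RNA switches were transcribed on Illumina chips by stalled E. coli RNA polymerase. SNAP-549-labelled MS2 coat protein was titrated from 0.7 or 1.5 nM, doubling up to 3 µM, in Tris-HCl pH 7.5 buffer containing KCl, MgCl2, BSA, DTT, tRNA and Tween-20, with no input, 200 uM small-molecule ligand, or an oligonucleotide input.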

[1] = input ligand: microRNA oligo, concentration not stated
[2] = Eterna round: R95, input ligand: FMN 200 uM
[3] = Eterna round: R95, input ligand: microRNA oligo, concentration not stated
[4] = Eterna round: R95, input ligand: none

Sequence	apparent KD of MS2 coat protein (input ligand: FMN 200 uM)	apparent KD of MS2 coat protein [1]	apparent KD of MS2 coat protein (input ligand: none)	apparent KD of MS2 coat protein [2]	apparent KD of MS2 coat protein [3]	apparent KD of MS2 coat protein [4]
GACCUCACUGUAGGAUAUGACCGAUCCAGAGGAUCAGAAGGACAUGAGGAUCACCCAUGUGCGUGGAGGGAACGUAAGAAACAA [Eternabot solution 2] (Eterna round: R96, puzzle: Exclusion NG 1)	323 nM	29.4 nM	52.9 nM	–	–	–
AAGAAACAUGAGGAUCACCCAUGUGAGGAUAUGAAAAAGAAAAGAAAAGAAAGAAGGAUCAGAAGGCACAAAGG [salish99-ex1_r3_025] (puzzle: Exclusion 1)	–	–	–	43 nM	30.3 nM	34.1 nM
CUAUCAAGCAAGGAUAUGCAAUUUAUUAUUUAUGCAGAAGGUGCAACAUGAGGAUCACCCAUGUUUCUGGGUUU [JR_E6_Sub047] (puzzle: Exclusion 6)	–	–	–	–	39.5 nM	–
GUGUAGAUAGGAUAUGCUGGAAUCUAGCGAAGCUAGGUUCUACAUGAGGAUCACCCAUGUAGAAGGGUCUACAC [Dot plot directed A v12] (puzzle: Exclusion 2)	–	–	–	–	28.5 nM	–
UUAAACGCAGGAUAUACAUUUUUUUUAUUAUCCUCAUAAAUACAUGAGGAUCACCCAUGUAGAAGGGCGAAAUU [Mat - Exclusion 2 - Mod of Hog - D87] (puzzle: Exclusion 2)	–	–	–	–	144 nM	–
UCAUACGAUGAGGAUAUCUCCGUUAAAGUAUGUAGAGAAGGCGUUACAUGAGGAUCACCCAUGUUUGUGGGCAG [Ex-6 Malc#9] (Eterna round: R96, puzzle: Exclusion 6)	–	250 nM	–	–	–	–
AUUGUUUAUGUAGGAUAUGCCUGGCGUGCCUUUGCAGAAGGACAUGAGGAUCACCCAUGUAACAUGAGGCUCACCCAUGUCGCG [salish99_ExNG1_r04_113] (Eterna round: R96, puzzle: Exclusion NG 1)	297 nM	184 nM	333 nM	–	–	–
AACGUACAGCAAAGCUGUACGCGUACAUGAGGAUCACCCAUGUAGGAUAUGGUAGGCAAAGCUUACUAGAAGGAUAGAGUGAUC [Mat - Exclusion NG 3 - Mod of JL - D77] (Eterna round: R96, puzzle: Exclusion NG 3)	497 nM	358 nM	333 nM	–	–	–
GUGUACGGAGGAUAUAUAUGGGCAGCAUACGCUGCAGCUUCACAUGAGGAUCACCCAUGUAGAAGGCUGUGCAC [JL-ex2-2.10 Brourd mod] (puzzle: Exclusion 2)	–	–	–	–	19.9 nM	–
GGUUGGCGAGGAUAUACAUGAGGAUCACCCAUGUGAGAGAAGAAAGUGAGGAAGAAAAGUAGAAGGCGCUGACG [salish99_ex3_r3_004] (puzzle: Exclusion 3)	–	–	–	133 nM	59 nM	62.4 nM
GGUGGACAUGAGGAUCACCCAUGUGAGGAUAUCGGCUGGCUAGUGGCGGAUGGCUUCUCGAGAAGGCGCAUAGU [Exclusion 1 V80] (puzzle: Exclusion 1)	–	–	–	–	50.2 nM	–
CUGAUGUUAGGAUAUCAGGCGCCCGCCACUGGCAGGGCGCAUGAGAAGGGACAUGAGGAUCACCCAUGUAGUAA [Anorbeus] (puzzle: Exclusion 4)	–	–	–	–	26.3 nM	–
CCCAGUUAGGAAGGAUAUUGUACAUGAGGAUCACCCAUGUAAUAAAUGAGGAUCUCGGGUGUCUACAAGAAGGUCCGGAUAGGC [Ostracism 12 - Jieux - Exclusion NG 2] (Eterna round: R96, puzzle: Exclusion NG 2)	104 nM	38.7 nM	46.4 nM	–	–	–
AGAUGGCGAGGAUAUACAUGAGGAUCACCCAUGUGAGAUAAAAGAGUGAGGAAGAAAAGUAGAAGGCGCUGUCA [Mat - Exclusion 3 - Mod of Salish D16] (puzzle: Exclusion 3)	–	–	–	116 nM	95.8 nM	120 nM
CAAGUCCUUUACUACAAGCACAUGAGGAUCACCCAUGUCAAAUUUGUGCCUCGGUACGGAAGCUCGUCUUUUCGUAG [Eternabot (L2) Solution 1] (Eterna round: R97, puzzle: Sensor, turn-off variant 1)	30 nM	–	35.6 nM	–	–	–
ACAUGAGGAUCACCCAUGUACACGUAAUGGCUCAUGUAGAGUGAGGAUAUGUGAGACGAACGAGCACAGAAGGCACAAGACUGG [Deportation 11 - Jieux - Exclusion NG 3] (Eterna round: R96, puzzle: Exclusion NG 3)	36.1 nM	21.8 nM	45.4 nM	–	–	–
ACAAAUCAUGUAGGAUAUGCGUGGCGAAGCUAUGCAGAAGGACAUGAGGAUCACCCAUGUGCUUCCGUCUGCGUACAGACGGUA [Mat - Exclusion NG 1 - Mod of JL - D16] (Eterna round: R96, puzzle: Exclusion NG 1)	75.3 nM	64.6 nM	91.5 nM	–	–	–

Sequence	apparent KD of MS2 coat protein (input ligand: FMN 200 uM)	apparent KD of MS2 coat protein [1]	apparent KD of MS2 coat protein (input ligand: none)	apparent KD of MS2 coat protein [2]	apparent KD of MS2 coat protein [3]	apparent KD of MS2 coat protein [4]
AAGAAACAUGAGGAUCACCCAUGUGAGGAUAUGAGGAAGAAAAGAAAAGAAAGAAGACUCAGAAGGCACAAAGG [salish99-ex1_r3_073] (puzzle: Exclusion 1)	–	–	–	189 nM	49 nM	76.8 nM
UAAAAGUGAGGAUAUCCAAUAUAUGACAUGAGGAUCACCCAUGUUUCCACUCGUACCUCCGGAGAAGGCACAAAAU [Ex5 #60] (Eterna round: R97, puzzle: Exclusion 5)	25.2 nM	–	28.6 nM	–	–	–
GCAGGAUAAGUUAGGAUAUACCUAUGGAUACAUAGGUAGAAGGGACAUGAGGAUCACCCAUGUGACUCACCUGC [Fiskers BMX 4 - 63] (puzzle: Brourd's mod of Exclusion 4)	–	–	–	33.5 nM	18.4 nM	22.4 nM
AGUCUGCGAGGAUAUACAUGAGGAUCACCCAUGUGCGAGAUACUAGUGAGGUCGAUUGGUAGAAGGCGCGGACG [Mat - Exclusion 3 - Mod of JL D85] (puzzle: Exclusion 3)	–	–	–	86.4 nM	93.1 nM	67 nM
UUUAAUUUUUUUUUUUUACAAGCUUUUUGCUCGUCUUAUACAUGAGGAUCACCCAUGUGGGUAGAGGAUAAAUUAUC [JMF 28] (puzzle: Sensor v3, turn-off variant 2)	–	–	–	38.7 nM	61.1 nM	36.2 nM
UCCAAGACAGGAUAUCUAGAGCCAAACAUGAGGAUCACCCAUGUGAAUCUCAGCAAACGCAGAGAAGGGUCAAAAU [Orisinxe] (puzzle: Exclusion 5)	–	–	–	30.1 nM	23.2 nM	30.9 nM
GGUGAGCUACUAGGAUAUCUAGGCUAUUUACCUAGAGAAGGAGUCGCCUUCCCUCGCGUAGAUACAUGAGGAUCACCCAUGUAU [Eternabot solution 50] (Eterna round: R96, puzzle: Exclusion NG 1)	16.9 nM	14.1 nM	18.1 nM	–	–	–
GUAGAGUAAGGAUAUAGUGAAUAGGAUAGAAUGGUUAGAAACUAGAAGGUACAUGAGGAUCACCCAUGUAAUGU [Excluse me!!!! 21 - Jieux - Exclusion 4] (puzzle: Exclusion 4)	–	–	–	–	20.4 nM	–
CAGUACUGAGGAUAUACAUGAGGAUCACCCAUGUGUGCCAGCUAGGAAACUAGCAAAAGUAGAAGGCAGUACUG [salish99_ex3_r3_082] (puzzle: Exclusion 3)	–	–	–	102 nM	12 nM	11.9 nM
GGAUCGAAUGUGAGGAUAUGCUGGUCCUUGGAUCAGCAGAAGGCACAUGAGGAUCACCCAUGUCCAAACGGUCC [Eli bmx4 4.44] (Eterna round: R97, puzzle: Brourd's mod of Exclusion 4)	352 nM	–	525 nM	–	–	–
UGUAGAGUGGUAGGAUAUCCGGCUGUUUCAGUCGGAGAAGGACCACAGUCACUGGGUCCUUAUAUGGGUGACCAUGUAUCUACU [pwkr exNG1 F6.7] (Eterna round: R96, puzzle: Exclusion NG 1)	558 nM	305 nM	395 nM	–	–	–
GGCAAUAACGAGGAUAUCGUAUCGGAAACGAUACGAGAAGGUGUAACAUGAGGAUCACCCAUGUUCCUCAAGCC [Fiskers Ex 6 - 8] (puzzle: Exclusion 6)	–	–	–	–	33.9 nM	–
GUUGUUUAUGUAGGAUAUGCCUGGCGUGCCUUUGCAGAAGGACAUGAGGAUCACCCAUGUAUUGCGGUCUGCGUUCAGAUCGCA [salish99_ExNG1_r4_039] (Eterna round: R96, puzzle: Exclusion NG 1)	59.5 nM	26 nM	39 nM	–	–	–
UCGAAAUCUAACAAGCCAUACAUGAGGAUCACCCAUGUGUUCGUCAUAGCGAUCCGACAUGAUGCUCGUCGAAAUAC [Eternabot (L2) Solution 48] (Eterna round: R97, puzzle: Sensor, turn-off variant 1)	448 nM	–	745 nM	–	–	–
CACCGUUAGAGAGGAUAUCGUACAUGAGGAUCACCCAUGUAAUAAAUGAGAAUUUCGGAUGUCUGCGAGAAGGCUCGAAUCGGC [Ostracism 32 - Jieux - Exclusion NG 2] (Eterna round: R96, puzzle: Exclusion NG 2)	–	23 nM	–	–	–	–
GCGAAAGCAAGCAGGUGAAACAUGAGGAUCACCCAUGUCCUCAUUUGCUCGUCUUAUAAGCUAUGCGAAAGCAUAGC [Sensor 3, v1 - 3] (puzzle: Sensor v3, turn-off variant 1)	–	–	–	13.7 nM	113 nM	12.5 nM
CGAAAUGCCCGUGGCCACAAGCUUUUUGCUUGUCUUACUACAUGAGGAUCACCCAUGUACCAUGGGCUCCUGACCAU [Rixele] (puzzle: Sensor v3, turn-off variant 2)	–	–	–	13.6 nM	11.6 nM	11.2 nM
